From patent US20070003557A1, “Method for treating cancer using premedication” (priority 2005, published 2007)
Entries after “also recorded” stand apart in the source; their conditions may differ.

Key:
Type in all cases: in vivo, human
[1] = Infusion reactions caused by KM-871 in patients, premedication with Sigulair, Zertec, Benadryl and Zantac (Example 3); details: per patient, KM-871 40 mg/m^2 every two weeks, Sigulair 10 mg, Zertec 10 mg orally and Benadryl 50 mg, Zantac 50 mg parenterally 30 min before, at the administrations named in column Pre-medication
Experimental: (§1) The following test was performed by using various compounds to suppress the infusion reactions caused by KM-871.
(§2) KM-871 was administered to each patient with a dose of 40 mg/m^2 once every two weeks for four times as a general rule. Sigulair (10 mg) and Zertec (10 mg) were orally administered and Benadryl (50 mg) and Zantac (50 mg) were parenterally administered to the patient 30 minutes prior to each administration of KM-871 except for the first administration.
(§3) As a test dose, KM-871 (10 mg/m^2), was administered to the patient two weeks prior to the first administration of KM-871 to confirm its safeness.

[2] = Infusion reactions caused by KM-871 in patients, premedication with Sigulair, Zertec, Benadryl, Zantac and Dexametazone (Example 4); details: one patient
Experimental: as §1
as §2, with “or 80 mg/m^2” for “once”, “(50 mg), Zantac (50” for “(50”, “Dexametazone (20” for “Zantac (50”
As a test dose, KM-871 (10 mg/m^2), was administered to the patient two weeks prior to the first administration of KM-871 to confirm its safeness. When toxicity or infusion reactions are observed to the patient by the administration, the administration was withdrawn.

[3] = Infusion reactions caused by KM-871 in patients, premedication with Sigulair and Zertec (Example 2); details: per patient
Experimental: as §1
KM-871 was administered to each patient with a dose of 40 mg/m^2 once every two weeks for four times as a general rule. Sigulair (10 mg) and Zertec (10 mg) were orally administered to the patient 30 minutes prior to each administration of KM-871 except for the first administration.
as §3

[4] = Infusion reactions caused by KM-871 in patients, premedication with Benadryl and Zantac (Example 1); details: per patient; for Infusion reaction, 1st administration / Infusion reaction, 2nd administration / Infusion reaction, 3rd administration: KM-871 40 mg/m^2 every two weeks, Benadryl 50 mg and Zantac 50 mg parenterally 30 min before, at the administrations named in column Pre-medication; for Infusion reaction, Test: KM-871 test dose 10 mg/m^2 two weeks prior to 1st administration
Experimental: The following test was performed to suppress the infusion reactions caused by human anti-GD3 chimeric antibody.
A human chimeric antibody which specifically binds to ganglioside GD3, wherein the human chimeric antibody comprises the H chain V region of the antibody comprising the amino acid sequence represented by SEQ ID NO:3 and the L chain V region of the antibody comprising the amino acid sequence represented by SEQ ID NO:4 was produced according to U.S. Pat. No. 6,437,098 (hereinafter referred to as ‘KM-871’).
KM-871 was administered to each patient with a dose of 40 mg/m^2 once every two weeks for four times as a general rule. Benadryl (50 mg) and Zantac (50 mg) were parenterally administered to the patient 30 minutes prior to each administration of KM-871 except for the first administration.
as §3

[5] = Infusion reactions caused by KM-871 in one patient, premedication before second and third administration (Example 5)
Experimental: On the day of the second administration of KM-871, Benadryl (100 mg), Zantac (50 mg), Singulair (10 mg), Zyrtec (10 mg) and Dexametazone (10 mg) were administered to the patient followed by the administration of KM-871.
Prior to the third administration of KM-871, Benadryl (100 mg), Zantac (50 mg), Singulair (10 mg), and Zyrtec (10 mg), were administered to the patient.

[6] = KM-871 test dose 10 mg/m^2 two weeks prior to 1st administration
[7] = KM-871 40 mg/m^2 every two weeks, Sigulair 10 mg and Zertec 10 mg orally 30 min before, at the administrations named in column Pre-medication
[8] = premedication at 1st administration
[9] = premedication at 1st and 2nd administration
[10] = premedication at 2nd administration

B1: KM-871: human chimeric antibody binding ganglioside GD3; H chain V region SEQ ID NO:3, L chain V region SEQ ID NO:4; produced per U.S. Pat. No. 6,437,098 (antibody, V domains shown)
VH: EVQLVESGGDFVQPGGSLRVSCAASGFAFSHYAMSWVRQAPGKGLEWVAYISSGGSGTYYSDSVKGRFTISRDNSKNTLYLQMRSLRAEDSAVYFCTRVKLGTYYFDSWGQGTLLTVSS
VL: DIQMTQSPSSLSASVGDRVTITCSASQDISNYLNWYQQKPDKAPKLLIFYSSNLHSGVPSRFSGGGSGTDYTLTISSLQPEDIATYFCHQYSKLPWTFGQGTKVEIKR
modifications: Artificial Sequence H chain V region of the antibody; Artificial Sequence L chain V region of the antibody
[1]
  Infusion reaction, 2nd administration: ITCHING
[1]; premedication at 1st, 2nd and 3rd administrations
  Infusion reaction, 1st administration: HIVES; also recorded: ITCHING
[1]; premedication at 2nd and 4th administrations
  Infusion reaction, 1st administration: FEVER; also recorded: HIVES/ITCHING
[1]; premedication at 2nd, 3rd and 4th administrations
  Infusion reaction, 1st administration: FEVER
[2]; KM-871 40 mg/m^2 or 80 mg/m^2 every two weeks, premedication (Sigulair, Zertec, Benadryl, Zantac, Dexametazone) at 2nd administration
  Infusion reaction, 1st administration: HIVES
[2]; [6]
  Infusion reaction, Test: RASH
[3]; [7]
  Infusion reaction, 1st administration: CHILLS; also recorded: THROAT SWELLING; also recorded: ITCHING/HIVES
  Infusion reaction, 2nd administration: HIVES
  Infusion reaction, 3rd administration: HIVES ON HANDS
[3]; [6]
  Infusion reaction, Test: FACIAL FLUSHING; also recorded: HIVES/ITCHING
[4]; [8]
  Infusion reaction, 1st administration: ARMS, LEGS, ERYTHEMA; also recorded: FEVER; also recorded: RIGORS
  Infusion reaction, 2nd administration: CHILLS; also recorded: FEVER
  Infusion reaction, 3rd administration: HIVES
  Infusion reaction, Test: FEVER; also recorded: HIVES
[4]; [9]
  Infusion reaction, 1st administration: FULLNESS IN THROAT
  Infusion reaction, 2nd administration: HIVES
  Infusion reaction, Test: ITCHING
[4]; [10]
  Infusion reaction, 1st administration: ITCHING; also recorded: RIGORS
  Infusion reaction, 3rd administration: CHILLS
[5]; 4 mg/m^2 of KM-871, no premedication stated
  Infusion reactions at the first administration: Rash, Urticaria, Itching
[5]; premedication Benadryl 100 mg, Zantac 50 mg, Singulair 10 mg and Zyrtec 10 mg before KM-871
  Infusion reactions after the third administration: infusion reactions did not appear
[5]; premedication Benadryl 100 mg, Zantac 50 mg, Singulair 10 mg, Zyrtec 10 mg and Dexametazone 10 mg the same day before KM-871
  Infusion reactions after the second administration: infusion reactions did not appear
